Data on 132 substances can be found in the supplement of paper PMC12042874.

This data set in a line: amyloid nucleation score (Sup35N fusion, yeast selection) (log enrichment); library NNK3; higher = more nucleation; inactive = no reads after selection. The gist of the method: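 The nucleation score is a DiMSum log enrichment of output over input reads, centred on the mode score of non-aggregating sequences. Sequences under 100 input reads were excluded, and reads came from Illumina sequencing of plasmid inserts. Psi-negative yeast expressing Sup35N fused to peptides of 20 random codons were induced with 100 μM copper sulfate for 24 hours and grown 7 days at 30°C on medium lacking adenine and uracil. Random libraries had three technical output replicates.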

± gives the uncertainty stated by the source.

With IGHGYMVDRWILRVVMVVAL, the amyloid nucleation score result was “inactive”.

Consider HSLHMKVCCWGSCEIFSMVR, for which the amyloid nucleation score result was “inactive”.

Consider VQISIDKAWMRTSTCSIGSK, for which the amyloid nucleation score result was “inactive”.

As for GILSISQNKISVHPLLLLRI, the amyloid nucleation score entry was “inactive”.

In the case of STLVFPLKFFELCSKD, the amyloid nucleation score result is “inactive”.

As for ALPYCSLVGCYVCKCRLMWL, the amyloid nucleation score is 0.541 ± 0.34.

On to VLEMMWVD, for which the amyloid nucleation score was 0.144 ± 0.64.

GLVWVN: the amyloid nucleation score result was “inactive”.

With LVSKAGLSLRLKG, the amyloid nucleation score entry was “inactive”.

Consider KLYLLLLYFLDMTVFWFVAV, for which the amyloid nucleation score entry was “inactive”.

FYFNYFIRMCNITCDI came in with an amyloid nucleation score of 2.73 ± 0.05.

As for SFVHGKLILKFRSVNASRQS, the amyloid nucleation score entry was “inactive”.

Take TDFFG: the amyloid nucleation score result is “inactive”.

Turning to LYTAATLGSTRLAYCKKEWG, the amyloid nucleation score entry was “inactive”.

As for QSNCCWVV, the amyloid nucleation score result was “inactive”.

For the substance PIMAWIWWRASDPMQKRLVG, the amyloid nucleation score entry is “inactive”.

For HSPKPKGWFDGTNSRDGKLY, the amyloid nucleation score result was “inactive”.

FNWFLRWFNPVCKDALWVEC: the amyloid nucleation score result is “inactive”.

Take QIKKAINHHKYFW: the amyloid nucleation score result is “inactive”.

As to RSRILMYYYKISLFYRIKVM, the amyloid nucleation score result was “inactive”.

As to VNRNFILSSLVH, the amyloid nucleation score result is “inactive”.

For the substance AEMDRRATFTGDHGDGFAIV, the amyloid nucleation score result was “inactive”.

For CLFSLPWWCSMM, the amyloid nucleation score entry is “inactive”.

For the substance NKKDHAYKWISVD, the amyloid nucleation score entry is “inactive”.

In the case of WSDHMMRALERLPECINKLL, the amyloid nucleation score result is “inactive”.

LDFSPWKFSTVGSRSSGMNG: the amyloid nucleation score entry was “inactive”.

Take YWQWSNV: the amyloid nucleation score result is “inactive”.

On to APDQLF, for which the amyloid nucleation score entry was “inactive”.

Substance FMHSLTGNSGWGKGYRKSHV returned an amyloid nucleation score of 1.04 ± 0.19.

For AWYFAP, the amyloid nucleation score result is “inactive”.

With RGCTGIKPLPTSWACAFSTS, the amyloid nucleation score entry is “inactive”.

WLSYLLNG: the amyloid nucleation score was determined as 1.91 ± 0.096.

As to ITIMSDQETSHVWLVDRTLP, the amyloid nucleation score came out at 0.298 ± 0.17.

Consider LNPVRSYSKNNIYLLTMLAL, for which the amyloid nucleation score result was “inactive”.

Take LFFMIVFSLYEFVMCFSSTR: the amyloid nucleation score result was “inactive”.

Regarding DVSYYERGSSVHYTHSD, the amyloid nucleation score entry is “inactive”.

With VGRPTASGLRNCMWSLSWCV, the amyloid nucleation score entry is “inactive”.

Turning to VHVSVCRSKGWHDLWRIKCV, the amyloid nucleation score entry was “inactive”.

FHIRHEGMLFQWGHEALAVK: the amyloid nucleation score entry was “inactive”.

In the case of PSTVTFRWFIVVSPLRHWFA, the amyloid nucleation score entry was “inactive”.

On to LDNDSWTRGLRGYLTYLRER, for which the amyloid nucleation score entry is “inactive”.

In the case of SFELVQWDS, the amyloid nucleation score entry is “inactive”.

For the substance GWRAIWGNWNLQYRTS, the amyloid nucleation score result was “inactive”.

As for MQVILNNVFSTFPLPAGLLR, the amyloid nucleation score result was “inactive”.

In the case of ISVLERLGYMFVSRHMLLVW, the amyloid nucleation score entry is “inactive”.

For the substance WAPACYTDSCVMIGGEPYRT, the amyloid nucleation score result is “inactive”.

With CICWQHDKVVAYSLSDAGMA, the amyloid nucleation score entry is “inactive”.

As to RNFRRVSSRF, the amyloid nucleation score entry was “inactive”.

As for NYGFGRVSAFYHQLA, the amyloid nucleation score result is “inactive”.

In the case of RSVFCKKFPDKNMVVFGVHL, the amyloid nucleation score entry is “inactive”.

Turning to LNWLAFSR, the amyloid nucleation score entry was “inactive”.

For the substance VDYSRALTAYVCIPANFSVP, the amyloid nucleation score result is “inactive”.

With PRLSAFVLRNYLRPKGYGGA, the amyloid nucleation score result is “inactive”.

MIYSYTNFGNIWKVCQVMRH returned an amyloid nucleation score of 2.39 ± 0.057.

MKYYVR: the amyloid nucleation score result is “inactive”.

Regarding QQYYVAWFCDYDLFNCMNLM, the amyloid nucleation score turned out to be 1.99 ± 0.095.

With NRVSFPRGSKFCTFL, the amyloid nucleation score entry is “inactive”.

As for YVVAGS, the amyloid nucleation score result was “inactive”.

For QRIHGLF, the amyloid nucleation score result is “inactive”.

Consider ISVYHVLTHKL, for which the amyloid nucleation score amounted to 1.49 ± 0.12.

As to IGLSLGCVFVMDNVLNARN, the amyloid nucleation score worked out at 1.55 ± 0.076.

For the substance FWLHLVPYRFPIVGLCLRG, the amyloid nucleation score entry was “inactive”.

As to GKGFCLLVVSSVMRDVGLVQ, the amyloid nucleation score result was “inactive”.

For the substance GSLMRVLLFEYLMDTCLWIV, the amyloid nucleation score result is “inactive”.

With PVVHFLWSLYRNLVCVDGKV, the amyloid nucleation score entry was “inactive”.

As to PFHRIPISVSLGYAFGTRCS, the amyloid nucleation score entry is “inactive”.

For ALSSNKSCVQYS, the amyloid nucleation score entry is “inactive”.

Turning to TGYPGPIKFRRIFYANYYSF, the amyloid nucleation score entry is “inactive”.

On to RINSVQGDGVLNLCPRLRVP, for which the amyloid nucleation score entry is “inactive”.

With GKTLLTSKDGCV, the amyloid nucleation score entry was “inactive”.

With TFIFVLVSC, the amyloid nucleation score entry was “inactive”.

As to CCAGSLLLNRVQV, the amyloid nucleation score result is “inactive”.

TDSPLRLKRDYSPNSFCRSG yielded an amyloid nucleation score of 0.005 ± 1.1.

Take LARMTCYSDCGSNRGLRRVG: the amyloid nucleation score entry is “inactive”.

As for VWLRGDVLGMTLHGCSIVTR, the amyloid nucleation score result was “inactive”.

YRYNNLKRCGNSAQWLAISS gave an amyloid nucleation score of -0.08 ± 0.34.

With MHATIMVVDRESFHGLGWKS, the amyloid nucleation score entry was “inactive”.

On to SRNVLYLVIKIYFEDFNPLS, for which the amyloid nucleation score entry is “inactive”.

On to VSRSRER, for which the amyloid nucleation score entry was “inactive”.

On to TACMRNVRTNIGKHTSQYLH, for which the amyloid nucleation score result is “inactive”.

HAVYL: the amyloid nucleation score entry is “inactive”.

Consider IVPAWLFGV, for which the amyloid nucleation score entry is “inactive”.

Take SSCKDPRRKE: the amyloid nucleation score result is “inactive”.

As to ATGYGL, the amyloid nucleation score result was “inactive”.

Regarding VWFLLPRGLRCV, the amyloid nucleation score result was “inactive”.

Regarding TMGGNVIV, the amyloid nucleation score entry was “inactive”.

Take NCPQWDVCFTYLSSGRQRAD: the amyloid nucleation score entry was “inactive”.

For SSSTKGFVNVDKSLASW, the amyloid nucleation score entry is “inactive”.

For the substance GCAGRSWTGYRVHAASV, the amyloid nucleation score result was “inactive”.

As for ANCKG, the amyloid nucleation score entry was “inactive”.

Take SLFGVNGMSAPGRRDV: the amyloid nucleation score came to 0.589 ± 0.31.

LVMACCNIMKSATMIILYTM: the amyloid nucleation score was 1.26 ± 0.093.

On to AALSSTW, for which the amyloid nucleation score result is “inactive”.

TFNRWCLVFLLMHNVLVCEW returned an amyloid nucleation score of 0.185 ± 0.33.

Take LRGYSASSSIVCESSRYARL: the amyloid nucleation score entry is “inactive”.

As to TEPIWWEFGCKYHGYISARS, the amyloid nucleation score entry was “inactive”.

With YVGLDVVPGVLGIGFILLYD, the amyloid nucleation score entry is “inactive”.

For the substance VICGGNRLRSIQWTFWLWDN, the amyloid nucleation score entry was “inactive”.

Take LVFHQDMCGNYYFRH: the amyloid nucleation score is 0.953 ± 0.13.

In the case of LSYLFFKPFWA, the amyloid nucleation score came out at 0.357 ± 0.74.

Turning to RITGALRAFGSRTFCASCVC, the amyloid nucleation score result was “inactive”.

As for CKFSDW, the amyloid nucleation score result is “inactive”.

Consider YTLPGIQAGFWARCVSHTRL, for which the amyloid nucleation score entry was “inactive”.

Regarding SSLETLSSLFLIRLMELVSR, the amyloid nucleation score entry is “inactive”.

SMCCCNILDLNRN yielded an amyloid nucleation score of 3.11 ± 0.057.

For the substance VAFVNKCFSD, the amyloid nucleation score entry is “inactive”.

CCKSVKFKSLPARN came in with an amyloid nucleation score of 0.725 ± 0.24.

With NRGFYQ, the amyloid nucleation score result was “inactive”.

Turning to CRHRYLDCCFGNWHP, the amyloid nucleation score entry was “inactive”.

Consider YTDTYSSLKDLPTGINCYNI, for which the amyloid nucleation score entry was “inactive”.

Substance RRKWHEYSVVMSRTNHMCIW had an amyloid nucleation score of -0.118 ± 0.58.

As to QMQTATRHFNLG, the amyloid nucleation score entry is “inactive”.

As to RGDMMGLSTENTLLLYDVGR, the amyloid nucleation score result is “inactive”.

With YRYLVFLRLNLSLRILFGFK, the amyloid nucleation score entry was “inactive”.

LKDYYFVLGHALYVLRNPMS: the amyloid nucleation score is 1.08 ± 0.13.

With LYSFSANNDMVHMYRNQVRF, the amyloid nucleation score result was “inactive”.

For YLIGRGVMVFNFPWLLHHTN, the amyloid nucleation score turned out to be 1.58 ± 0.1.

Regarding VRFCSEMVCLDYFSNIMHLG, the amyloid nucleation score entry is “inactive”.

With LLGVLDSLMRRFMNHINETG, the amyloid nucleation score entry was “inactive”.

On to NWYDSWRVFAQNKDCSLWA, for which the amyloid nucleation score entry is “inactive”.

DFGKNSLWSSREDNLKYWFM: the amyloid nucleation score result was “inactive”.

QRYSLHDINEDYRYDWVNGL: the amyloid nucleation score result is “inactive”.

ALFLIFSRELHSNDNLLECS yielded an amyloid nucleation score of 0.367 ± 0.14.

The substance MLGLCPFKSDWLLIYRSMWC displayed an amyloid nucleation score of 1.32 ± 0.15.

Turning to IIHLENMPICQGALIDGLAL, the amyloid nucleation score result was “inactive”.

For NIYFLVRDSSRIRHKSVGWQ, the amyloid nucleation score was 2.17 ± 0.06.

For RRNMWG, the amyloid nucleation score result was “inactive”.

As to STGWSMLVFRTRCYLFSFSG, the amyloid nucleation score entry is “inactive”.

Consider MILFC, for which the amyloid nucleation score entry was “inactive”.

CMYILFINVCMATGANYGSY returned an amyloid nucleation score of 1.58 ± 0.092.

In the case of TLARQWSDP, the amyloid nucleation score entry is “inactive”.

Take YFYKNLSSFHFGKMRLK: the amyloid nucleation score entry is “inactive”.
